The term EC50 denotes the midpoint of the concentration-response curve. Read a high EC50 as weaker potency.

Assay [1] addresses T1, cynomolgus IL-7Ra expressed on CHOK1-cyno IL-7Ra cells (cynomolgus, UniProt Q38IC7 21-459).
T1 sequence: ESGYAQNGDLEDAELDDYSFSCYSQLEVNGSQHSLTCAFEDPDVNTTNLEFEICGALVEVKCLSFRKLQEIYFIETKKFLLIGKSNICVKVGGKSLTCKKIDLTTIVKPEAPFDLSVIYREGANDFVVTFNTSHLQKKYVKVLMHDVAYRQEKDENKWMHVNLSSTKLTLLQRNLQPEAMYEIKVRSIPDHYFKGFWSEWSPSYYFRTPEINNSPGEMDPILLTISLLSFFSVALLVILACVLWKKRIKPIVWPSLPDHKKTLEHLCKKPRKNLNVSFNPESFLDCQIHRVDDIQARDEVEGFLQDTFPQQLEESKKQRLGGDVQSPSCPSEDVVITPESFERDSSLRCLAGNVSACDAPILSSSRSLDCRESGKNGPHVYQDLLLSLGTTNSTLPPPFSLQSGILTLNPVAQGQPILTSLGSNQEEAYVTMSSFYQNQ
The assay can be described thus: flow cytometry, CHOK1-cyno IL-7Ra cells. In general terms: Flow cytometry measures light scatter and fluorescence of single cells or particles in a stream.

The target in assay [2] is T2, human IL-7Ra expressed on CHOK1-human IL-7Ra cells (human, UniProt P16871 21-459).
T2 construct: also called human IL-7Ra expressed on cell membrane; CD127
T2 sequence: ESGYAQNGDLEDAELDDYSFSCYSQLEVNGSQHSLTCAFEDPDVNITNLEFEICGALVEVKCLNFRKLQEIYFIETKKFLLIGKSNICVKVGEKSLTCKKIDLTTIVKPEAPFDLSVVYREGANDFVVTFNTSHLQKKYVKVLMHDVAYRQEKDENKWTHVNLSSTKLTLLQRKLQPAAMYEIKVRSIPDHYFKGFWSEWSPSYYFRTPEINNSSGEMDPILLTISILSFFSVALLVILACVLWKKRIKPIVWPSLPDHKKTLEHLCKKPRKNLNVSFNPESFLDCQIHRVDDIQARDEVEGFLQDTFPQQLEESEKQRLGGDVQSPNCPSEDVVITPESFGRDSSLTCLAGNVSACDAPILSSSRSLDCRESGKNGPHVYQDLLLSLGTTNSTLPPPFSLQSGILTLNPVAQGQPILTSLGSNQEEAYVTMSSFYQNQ
Kind of assay: flow cytometry, CHOK1-human IL-7Ra cells.

B1: HuAb001 (antibody, V domains shown)
VH: QVQLVQSGAEVKKPGASVKVSCKASGYRFTDYELHWVRQAPGQGLEWMGGIDPKTGGTAYNQKFKGRVTMTRDTSTSTVYMELSSLRSEDTAVYYCARSGGRWYFDVWGQGTTVTVSS
VL: DIVLTQSPASLAVSPGQRATITCRTSESVSIHLLHLMHWYQQKPGQPPKLLIYGASNLESGVPARFSGSGSGTDFTLTINPVEAEDTANYYCQQSIKDPYTFGGGTKVEIK
notes: Humanized version of cmAb011; also called humanized VL1 / humanized VH1
With B1, in assay [1], the EC50 was determined as 0.167 µg/mL and the “Top (MFI)” value was 16000 MFI. For the same molecule, in assay [2], the EC50 was 0.17 µg/mL and the “Top (MFI)” value stood at 22300 MFI.

B2: HuAb016 (antibody, V domains shown)
VH: QVQLVQSGAEVKKPGASVKVSCKASGYRFTDYELHWVRQAPGQGLEWMGGIDPKTGGTAYNQKFKGKVTLTSDRSTSTVYMELSSLRSEDTAVYYCARSGGRWYFDVWGQGTTVTVSS
VL: DIVLTQSPDSLAVSLGERATINCRTSESVSIHLLHLMHWYQQKPGQPPKLLIYGASNLESGVPDRFSGSGSETDFTLTISSLQAEDVAVYYCQQSIKDPYTFGGGTKVEIK
notes: Humanized version of cmAb011; also called humanized VL4 / humanized VH4
As to B2, in assay [1], the half-maximal effective concentration (EC50) was determined as 0.128 µg/mL and the “Top (MFI)” value came to 17100 MFI. In assay [2], the EC50 was determined as 0.113 µg/mL and the “Top (MFI)” value was found to be 23700 MFI.

B3: HuAb012 (antibody, V domains shown)
VH: QVQLVQSGAEVKKPGASVKVSCKASGYRFTDYELHWVKQAPGQGLEWIGGIDPKTGGTAYNQKFKGRVTMTSDRSTSTVYMELSSLRSEDTAVYYCARSGGRWYFDVWGQGTTVTVSS
VL: DIVLTQSPDSLAVSLGERATINCRTSESVSIHLLHLMHWYQQKPGQPPKLLIYGASNLESGVPDRFSGSGSETDFTLTISSLQAEDVAVYYCQQSIKDPYTFGGGTKVEIK
notes: Humanized version of cmAb011; also called humanized VL4 / humanized VH3
On to B3, for which, in assay [1], the EC50 came to 0.165 µg/mL and the “Top (MFI)” value worked out at 17000 MFI. In addition, in assay [2], a half-maximal effect (EC50) was put at 0.159 µg/mL and the “Top (MFI)” value amounted to 20300 MFI.

B4: HuAb015 (antibody, V domains shown)
VH: QVQLVQSGAEVKKPGASVKVSCKASGYRFTDYELHWVRQAPGQGLEWMGGIDPKTGGTAYNQKFKGKVTLTSDRSTSTVYMELSSLRSEDTAVYYCARSGGRWYFDVWGQGTTVTVSS
VL: DIVMTQSPDSLAVSLGERATINCRTSESVSIHLLHLMHWYQQKPGQPPKLLIYGASNLESGVPDRFSGSGSGTDFTLTISSLQAEDVAVYYCQQSIKDPYTFGGGTKVEIK
notes: Humanized version of cmAb011; also called humanized VL3 / humanized VH4
As to B4, in assay [1], the EC50 worked out at 0.189 µg/mL and the “Top (MFI)” value came to 17400 MFI. Further, in assay [2], the EC50 worked out at 0.158 µg/mL and the “Top (MFI)” value was 24100 MFI.

B5: HuAb011 (antibody, V domains shown)
VH: QVQLVQSGAEVKKPGASVKVSCKASGYRFTDYELHWVKQAPGQGLEWIGGIDPKTGGTAYNQKFKGRVTMTSDRSTSTVYMELSSLRSEDTAVYYCARSGGRWYFDVWGQGTTVTVSS
VL: DIVMTQSPDSLAVSLGERATINCRTSESVSIHLLHLMHWYQQKPGQPPKLLIYGASNLESGVPDRFSGSGSGTDFTLTISSLQAEDVAVYYCQQSIKDPYTFGGGTKVEIK
notes: Humanized version of cmAb011; also called humanized VL3 / humanized VH3
Consider B5, for which, in assay [1], a half-maximal response (EC50) required 0.241 µg/mL and the “Top (MFI)” value was 17700 MFI. In assay [2], the midpoint of the response, the EC50, lay at 0.256 µg/mL and the “Top (MFI)” value came to 20500 MFI.

B6: HuAb014 (antibody, V domains shown)
VH: QVQLVQSGAEVKKPGASVKVSCKASGYRFTDYELHWVRQAPGQGLEWMGGIDPKTGGTAYNQKFKGKVTLTSDRSTSTVYMELSSLRSEDTAVYYCARSGGRWYFDVWGQGTTVTVSS
VL: DIVLTQSPASLAVSPGQRATITCRTSESVSIHLLHLMHWYQQKPGQPPKLLIYGASNLESGVPARFSGSGSETDFTLTINPVEAEDTANYYCQQSIKDPYTFGGGTKVEIK
notes: Humanized version of cmAb011; also called humanized VL2 / humanized VH4
On to B6, for which, in assay [1], the midpoint of the response, the EC50, lay at 0.0534 µg/mL and the “Top (MFI)” value is 16700 MFI. Also, in assay [2], a half-maximal effect (EC50) was put at 0.0529 µg/mL and the “Top (MFI)” value amounted to 23900 MFI.

B7: HuAb018 (antibody, V domains shown)
VH: QVQLVQSGAEVKKPGASVKVSCKASGYRFTDYELHWVKQAPGQGLEWIGGIDPKTGGTAYNQKFKGKVTLTSDRSTSTVYMELSSLRSEDTAVYYCARSGGRWYFDVWGQGTTVTVSS
VL: DIVLTQSPASLAVSPGQRATITCRTSESVSIHLLHLMHWYQQKPGQPPKLLIYGASNLESGVPARFSGSGSETDFTLTINPVEAEDTANYYCQQSIKDPYTFGGGTKVEIK
notes: Humanized version of cmAb011; also called humanized VL2 / humanized VH5
Turning to B7, in assay [1], the midpoint of the response, the EC50, lay at 0.0988 µg/mL and the “Top (MFI)” value was determined as 18400 MFI. In addition, in assay [2], a half-maximal response (EC50) required 0.105 µg/mL and the “Top (MFI)” value was 24100 MFI.

B8: HuAb002 (antibody, V domains shown)
VH: QVQLVQSGAEVKKPGASVKVSCKASGYRFTDYELHWVRQAPGQGLEWMGGIDPKTGGTAYNQKFKGRVTMTRDTSTSTVYMELSSLRSEDTAVYYCARSGGRWYFDVWGQGTTVTVSS
VL: DIVLTQSPASLAVSPGQRATITCRTSESVSIHLLHLMHWYQQKPGQPPKLLIYGASNLESGVPARFSGSGSETDFTLTINPVEAEDTANYYCQQSIKDPYTFGGGTKVEIK
notes: Humanized version of cmAb011; also called humanized VL2 / humanized VH1
In the case of B8, in assay [1], the EC50 came to 0.126 µg/mL and the “Top (MFI)” value came to 15900 MFI. In addition, in assay [2], the EC50 was determined as 0.115 µg/mL and the “Top (MFI)” value was 22600 MFI.

B9: HuAb017 (antibody, V domains shown)
VH: QVQLVQSGAEVKKPGASVKVSCKASGYRFTDYELHWVKQAPGQGLEWIGGIDPKTGGTAYNQKFKGKVTLTSDRSTSTVYMELSSLRSEDTAVYYCARSGGRWYFDVWGQGTTVTVSS
VL: DIVLTQSPASLAVSPGQRATITCRTSESVSIHLLHLMHWYQQKPGQPPKLLIYGASNLESGVPARFSGSGSGTDFTLTINPVEAEDTANYYCQQSIKDPYTFGGGTKVEIK
notes: Humanized version of cmAb011; also called humanized VL1 / humanized VH5
With B9, in assay [1], a half-maximal response (EC50) required 0.0891 µg/mL and the “Top (MFI)” value stood at 17700 MFI. Moreover, in assay [2], the concentration giving a half-maximal response (EC50) stood at 0.0778 µg/mL and the “Top (MFI)” value was determined as 24600 MFI.

B10: HuAb007 (antibody, V domains shown)
VH: QVQLVQSGAEVKKPGASVKVSCKASGYRFTDYELHWVRQAPGQGLEWMGGIDPKTGGTAYNQKFKGRVTMTSDRSTSTVYMELSSLRSEDTAVYYCARSGGRWYFDVWGQGTTVTVSS
VL: DIVMTQSPDSLAVSLGERATINCRTSESVSIHLLHLMHWYQQKPGQPPKLLIYGASNLESGVPDRFSGSGSGTDFTLTISSLQAEDVAVYYCQQSIKDPYTFGGGTKVEIK
notes: Humanized version of cmAb011; also called humanized VL3 / humanized VH2
Take B10: in assay [1], the EC50 is 0.244 µg/mL and the “Top (MFI)” value stood at 17100 MFI. Besides, in assay [2], the EC50 was found to be 0.209 µg/mL and the “Top (MFI)” value came out at 21100 MFI.

B11: HuAb010 (antibody, V domains shown)
VH: QVQLVQSGAEVKKPGASVKVSCKASGYRFTDYELHWVKQAPGQGLEWIGGIDPKTGGTAYNQKFKGRVTMTSDRSTSTVYMELSSLRSEDTAVYYCARSGGRWYFDVWGQGTTVTVSS
VL: DIVLTQSPASLAVSPGQRATITCRTSESVSIHLLHLMHWYQQKPGQPPKLLIYGASNLESGVPARFSGSGSETDFTLTINPVEAEDTANYYCQQSIKDPYTFGGGTKVEIK
notes: Humanized version of cmAb011; also called humanized VL2 / humanized VH3
As to B11, the EC50 in assay [1] is 0.175 µg/mL; in assay [2], 0.152 µg/mL. Further, the “Top (MFI)” value in assay [1] came to 17500 MFI; in assay [2] it was 20600 MFI.

B12: HuAb006 (antibody, V domains shown)
VH: QVQLVQSGAEVKKPGASVKVSCKASGYRFTDYELHWVRQAPGQGLEWMGGIDPKTGGTAYNQKFKGRVTMTSDRSTSTVYMELSSLRSEDTAVYYCARSGGRWYFDVWGQGTTVTVSS
VL: DIVLTQSPASLAVSPGQRATITCRTSESVSIHLLHLMHWYQQKPGQPPKLLIYGASNLESGVPARFSGSGSETDFTLTINPVEAEDTANYYCQQSIKDPYTFGGGTKVEIK
notes: Humanized version of cmAb011; also called humanized VL2 / humanized VH2
On to B12, for which, in assay [1], the midpoint of the response, the EC50, lay at 0.191 µg/mL and the “Top (MFI)” value is 16700 MFI. Also, in assay [2], the EC50 was determined as 0.177 µg/mL and the “Top (MFI)” value stood at 21600 MFI.

The values above are taken from patent publication US20260250402A1 (C O INMAGENE PTE, published 2026).
